Measurements reported in the supplement of paper PMC10567573.

B1: CDS2 (parent)
chain: LIVVTQSHLVIHNLFEGMIWFIVP
B2: ZNF263 (parent)
chain: LLRHQRIHTGERPYKCPECGKSFS

Variants of: B1
Experiment: protein stability index of a GFP-peptide fusion (GPS, HEK-293T) (PSI 1-6); higher = more stable
Details: c terminus: a fixed tail appended
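Note: lentivirally expressed fusions sorted by FACS into six bins by GFP to DsRed ratio, PSI derived from sequencing read proportions per bin multiplied by bin number.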

Protein stability index, by site and new letter:
V23: D 3.03, W 1.67
V4: N 3.21, C 3.17
F21: N 3.24, I 3.28
E16: N 3.06, Y 2.74
L14: D 3.03, W 2.72, F 2.92
L1: Y 3.07
N13: K 2.81, V 3.45
I11: F 3.51
T5: P 3.86
W20: S 3.64
H12: I 1.85
I2: K 4.33
L9: H 1.56
G17: L 3.83, R 3.21, P 2.82
H8: E 2.35, T 2.91
S7: Y 3.16, V 3.79, F 2.19
V10: T 2.15
Q6: A 2.85, D 4.07
I22: N 1.8, A 2.07

Variants of: B2
Experiment: as above
Details: c terminus: a fixed tail appended

Protein stability index, by site and new letter:
P13: Y 1.89, H 1.64, A 3.1, T 2.56, N 2.69, K 1.78, E 2.48, G 2.36, F 2.01, S 2.02, W 2.83, V 2.54, Q 3.02, L 2.73
H4: K 2.2, A 2.18, Q 2.56, W 1.77, V 3.58, L 2.15, F 1.92, S 2.23, D 2.58, Y 2.12, T 1.69, I 1.96
E18: L 2.24, Y 3.02, T 2.25, H 2.5, C 1.86, Q 2.41, A 2.25, K 2.64, R 2.41
S24: H 2.12, A 1.92, T 2.08, I 2.11, D 2.36, C 3.14, W 2.59, R 1.94, Y 2.25, E 1.88, Q 3.11, G 3.65, K 2.07, N 2.34
I7: D 3.06, C 2.48, K 2.14, N 2.1, S 1.91, A 2.39, V 2.27, Y 1.77, Q 2.31, M 2.66, W 2.17, T 2.41
S22: G 2.65, K 2.35, I 2.88, H 2.29, M 2.05, N 1.4, P 2.36, V 2.98, C 2.37, T 2.23, Y 2.38, E 1.88
C19: Y 2.45, L 2.15, T 3.42, H 3.21, W 1.66, M 2.07, D 3.28, I 1.81, P 2.87
H8: R 1.37, I 1.8, M 2.24, N 2.88, Q 2.52, C 2.03, W 1.73, V 2.48, Y 1.59, S 2.61, F 2.04, G 2.39
K21: D 2.38, I 1.68, L 2.77, Q 2.75, V 1.91, G 1.83, Y 2.19, A 2.93, N 2.05, M 1.59, P 2.61
P17: R 2.6, H 1.8, C 2, M 1.83, N 2.39, W 1.74, D 2.19, L 1.91, E 2.26, K 2.15, G 2.88, T 2.38, Y 1.39
G20: S 1.95, H 2.21, T 2.17, M 2.13, A 2.05, E 1.66, W 1.46, P 1.88, I 1.75, C 1.87, D 2.52, Q 1.86, R 1.79
G10: K 2.24, V 2.43, F 2.07, D 2.56, P 2.15, L 2.3, M 2.23, H 2.61, S 2.64, E 3.06, I 2.29, A 2.36, W 1.69, Y 2.17, T 3.22
K15: Q 2.46, H 2.29, V 2.4, D 2.74, I 2.46, R 2, Y 2.17, A 2.52, L 1.98, M 2.15, W 2.03, P 1.74, S 2.48, F 2.41, T 1.97
R3: A 3.21, L 1.63, M 2.04, K 2.48, W 2.3, N 2.28, Y 1.62, T 3.27, E 2.9, F 1.58, H 2.56, Q 2.34, V 2.3, P 2.76, C 2.98
F23: W 1.84, N 2.68, Y 2.79, E 2.38, D 3.13, T 2.59, S 2.25, K 2.83, R 1.93, Q 3.71, M 1.99, A 2.87, C 3.29, I 2.51
C16: T 3.4, M 2.36, E 3.33, D 3.46, Q 3.2, G 3.9, V 2.16, Y 2.12, K 3.44, N 2.76, P 3.06, S 2.73, H 3.04, W 3.15, A 3.17, I 2.77, L 2.38
R12: A 2.11, V 2.91, Q 2.67, N 1.59, F 2.65, E 2.71, H 2.67, D 1.93, L 2.69, C 2.48, G 3.4, S 2.11
E11: F 1.56, N 2.32, P 2.39, H 2.7, K 2.04, V 2.56, I 1.78, L 1.99, C 1.96
R6: E 2.74, H 3.73, L 2.41, G 2.08, A 2.68, F 1.41, D 2.78, K 2.81, M 2.08, T 2.85, C 5, W 2.06, I 2.22, P 2.56, S 2.51
Q5: G 1.87, D 2.23, R 2.09, P 2.3, S 2.36, N 2.29, K 2.28, W 1.66, M 2.21, H 2.74, I 2.13
T9: Q 3.1, E 2.62, W 1.49, A 1.85, C 2.19, H 2.21, I 2.53, S 1.88, L 3.29, D 2.73, G 3.33, F 2.06
L1: Q 4.46, M 1.65, H 2.44, N 2.85, F 3.5, I 2.06, V 3.03, W 2.95, G 2.73, S 2.26, E 2.29, R 4.23
L2: Y 1.82, C 4.89, N 3.27, W 1.86, A 1.96, S 3.11, P 2.63, V 4.05, M 3.08, Q 2.57
Y14: C 3.63, E 2.85, Q 2.11, G 2.34, A 2.74, I 2.23, M 2.42, F 2.64, K 1.59, R 1.94, H 2.13, T 2.25, S 1.95
